The record followed here is patent publication US20210139579A1 (NBE THERAPEUTICS, published 2021).

Test [1] has as its target T1, Recombinant human twin strep-tagged ROR2 extracellular domain (human, UniProt Q01974 34-403).
T1 construct: extracellular domain; also called strep-tagged human ROR2; recombinant, purified hROR2
As to the kind of experiment: ELISA on coated twin strep-tagged hROR2. On the procedure: (§1) Each well of a 96-well plate was coated with 100 μL of 2 μg/mL strep-tagged human ROR1 or ROR2 (from Example 5) in 0.1 M bicarbonate coating buffer (pH 9.6), and incubated for 12 h at 4° C.
On the technique in general: ELISA stands for enzyme-linked immunosorbent assay.

Test [2] addresses T2, StrepII-tagged human ROR1-extracellular domain (human, UniProt Q01973 30-406).
T2 construct: also called strep-tagged human ROR1; recombinant, purified hROR1
As to the kind of experiment: ELISA on coated strep-tagged hROR1, detected with anti-human Fc-gamma HRP. The protocol: as §1

Test [3] deals with T3, human ROR1 (hROR1) on the cell surface (human, UniProt Q01973 30-937).
T3 construct: whole, on cells; Endogenous on the human lines 697, MDA-MB-468, HS-578T, A549 and HT-29; ectopically expressed on murine EMT-6 cells (clone 14); also called full-length ROR1 (NP_005003.2)
T3 sequence (Q01973 30-937): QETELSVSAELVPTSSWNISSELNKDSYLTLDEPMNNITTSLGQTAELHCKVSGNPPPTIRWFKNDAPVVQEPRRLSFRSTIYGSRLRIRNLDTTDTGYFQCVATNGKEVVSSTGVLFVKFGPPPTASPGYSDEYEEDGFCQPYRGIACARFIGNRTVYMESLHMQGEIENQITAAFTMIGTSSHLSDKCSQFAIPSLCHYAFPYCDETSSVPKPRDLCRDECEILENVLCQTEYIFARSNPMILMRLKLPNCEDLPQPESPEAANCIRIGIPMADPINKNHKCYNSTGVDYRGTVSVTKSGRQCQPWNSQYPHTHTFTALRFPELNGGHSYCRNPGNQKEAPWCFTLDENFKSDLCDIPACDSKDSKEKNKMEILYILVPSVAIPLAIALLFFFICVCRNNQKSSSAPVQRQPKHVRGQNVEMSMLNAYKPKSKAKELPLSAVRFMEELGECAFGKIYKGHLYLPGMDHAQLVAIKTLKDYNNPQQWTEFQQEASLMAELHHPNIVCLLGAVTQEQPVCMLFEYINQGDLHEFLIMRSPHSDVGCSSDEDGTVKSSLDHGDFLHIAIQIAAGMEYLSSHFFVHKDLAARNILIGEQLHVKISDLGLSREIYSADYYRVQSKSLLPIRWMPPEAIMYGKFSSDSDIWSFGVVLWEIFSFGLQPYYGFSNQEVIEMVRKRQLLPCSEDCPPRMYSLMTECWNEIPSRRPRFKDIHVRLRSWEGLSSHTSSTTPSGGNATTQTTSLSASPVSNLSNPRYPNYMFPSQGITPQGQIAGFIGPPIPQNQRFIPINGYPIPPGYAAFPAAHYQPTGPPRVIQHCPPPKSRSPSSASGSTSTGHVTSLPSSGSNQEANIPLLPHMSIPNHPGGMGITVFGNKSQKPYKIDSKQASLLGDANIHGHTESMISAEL
The test is described as follows: flow cytometry on human cancer cell lines, 2A2 at 2 µg/mL.

T2 sequence (Q01973 other isoform, or with tags, fused parts or gaps): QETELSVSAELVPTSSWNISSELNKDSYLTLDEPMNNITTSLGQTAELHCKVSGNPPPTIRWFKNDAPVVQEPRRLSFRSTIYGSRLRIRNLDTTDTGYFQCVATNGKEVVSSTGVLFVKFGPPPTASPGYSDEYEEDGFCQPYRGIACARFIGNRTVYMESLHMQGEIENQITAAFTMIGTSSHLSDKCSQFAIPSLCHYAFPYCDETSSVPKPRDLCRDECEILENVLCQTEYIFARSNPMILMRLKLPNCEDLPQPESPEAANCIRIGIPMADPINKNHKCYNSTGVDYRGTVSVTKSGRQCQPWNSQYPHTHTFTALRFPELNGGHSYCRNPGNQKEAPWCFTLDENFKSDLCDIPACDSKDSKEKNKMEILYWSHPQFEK
T1 sequence (Q01974 other isoform, or with tags, fused parts or gaps): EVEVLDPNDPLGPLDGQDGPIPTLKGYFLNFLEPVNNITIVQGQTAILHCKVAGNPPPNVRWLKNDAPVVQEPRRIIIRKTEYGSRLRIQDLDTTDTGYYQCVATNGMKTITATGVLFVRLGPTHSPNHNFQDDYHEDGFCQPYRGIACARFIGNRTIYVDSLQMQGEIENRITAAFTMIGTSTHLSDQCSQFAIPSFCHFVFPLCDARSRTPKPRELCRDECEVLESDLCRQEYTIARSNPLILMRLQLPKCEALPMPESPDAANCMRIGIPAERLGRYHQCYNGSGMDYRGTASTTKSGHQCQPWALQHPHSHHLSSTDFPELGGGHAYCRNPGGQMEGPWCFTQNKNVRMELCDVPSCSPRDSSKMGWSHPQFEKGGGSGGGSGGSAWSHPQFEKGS

B1: ERR1-324 (mAb034) (antibody, human IgG1)
heavy: not shown
light: ELVLTQTPSPVSAAVGGTVTINCQASQSVYGNNELAWYQQKPGQPPKLLIYRASILTSGVPSRFKGSGSGTQFTLTISNVQREDAATYYCLGGYVSQSYRAAFGGGTELEILRTVAAPSVFIFPPSDEQLKSGTASVVCLLNNFYPREAKVQWKVDNALQSGNSQESVTEQDSKDSTYSLSSTLTLSKADYEKHKVYACEVTHQGLSSPVTKSFNRGECGGGGGSLPETG
notes: Chimeric rabbit/human IgG1, kappa; not shown: Strep tag
As to B1, the values for the binding result in test [1] and in test [2] were “no binding” and “binds”, respectively.

B2: XBR1-402 (mAb031) (antibody, human IgG1, V domains shown)
VH: QEQQKESGGGLFKPTDTLTLTCTASGFDISSYYMSWVRQAPGNGLEWIGAIGISGNAYYASWAKSRSTITRNTNLNTVTLKMTSLTAADTATYFCARDHPTYGMDLWGPGTLVTVSS
VL: SYELTQLPSVSVSLGQTARITCEGNNIGSKAVHWYQQKPGLAPGLLIYDDDERPSGVPDRFSGSNSGDTATLTISGAQAGDEADYYCQVWDSSAYVFGGGTQLTVTG
notes: Chimeric rabbit/human IgG1, lambda; not shown: Strep tag
As for B2, the values for the binding result in test [1] and in test [2] were “no binding” and “binds”, respectively.

B3: 2A2 (mAb066) (antibody, human IgG1)
heavy: not shown
light: DIVMTQSQKIMSTTVGDRVSITCKASQNVDAAVAWYQQKPGQSPKLLIYSASNRYTGVPDRFTGSGSGTDFTLTISNMQSEDLADYFCQQYDIYPYTFGGGTKLEIKRTVAAPSVFIFPPSDEQLKSGTASVVCLLNNFYPREAKVQWKVDNALQSGNSQESVTEQDSKDSTYSLSSTLTLSKADYEKHKVYACEVTHQGLSSPVTKSFNRGECGGGGGSLPETG
notes: IgG with human IgG1 and kappa constant regions; also called anti-human ROR1 antibody 2A2; not shown: Strep tag
On to B3, for which, in test [3], the binding result is given as “binds”.

B4: ERR1-306 (mAb033) (antibody, human IgG1, V domains shown)
VH: QEQLKESGGGLVQPGGSLKLSCKASGFDLSNYGVSWVRQAPGKGLEWIGYIDPTFDYTYYASWVNGRFSISRENTQNTVSLQINSLTPADTATYFCARWVYGVDDYGDGNWLDLWGQGTLVTISS
VL: QFVLTQSPSVSAALGASAKLTCTLSSAHKTYTIDWYQQQQGEAPRYLMELKSDGSYTKGTGVPDRFSGSSSGADRYLIIPSVQADDEADYYCGTDYSGGYVFGGGTQLTVTG
notes: as for B2
On to B4, for which the binding result in test [1] is recorded as “no binding”.

B5: ERR1-301 (mAb027) (antibody, human IgG1, V domains shown)
VH: QEQLEESGGGLVTPGGSLTLTCTASGFTISTYHMSWVRQAPGKGLEWIGSIYAGSGSTYYASWVNGRFTISSNTTQNTVSLQMNSLTVADTATYFCARDHPSYGMDLWGPGTLVTVSS
VL: SYELTQLPSVSVSLGQTARITCGGNSIGSKAVNWYQQKPGLAPGLLIYDDDERPSGVPDRFSASNSGDTATLTISGAQAEDEADYYCQLWDSSAVAYVFGGGTQLTVTG
notes: as for B2
As for B5, the binding result in test [1] is “no binding”; in test [2] it was “binds”.

B6: ERR1-403 (mAb035) (antibody, human IgG1, V domains shown)
VH: QEQLKESGRGLVQPGGSLKLSCKASGFDFSGWYMTWVRQAPGKGLEWIGTIGTTKGRTYYASWVNGRFTISSDNAQNTVDLQMNSLTAADRATYFCVRGSDYFDLWGPGTLVTISS
VL: SYELTQLPSVSVSLGQTARITCGGNSIGSKAVNWYQQKPGLAPGLLIYDDDERPSGVPARFSGSNSGDTATLTISGAQAGDEADYYCQLWDSSAGAYVFGGGTQLTVTG
notes: as for B2
Consider B6, for which the values for the binding result in test [1] and in test [2] were “no binding” and “binds”, respectively.

B7: ERR1-Top43 (mAb036) (antibody, human IgG1, V domains shown)
VH: QSLEESGGRLVTPGTPLTLTCTVSGFSLSSYWMSWVRQAPGKGLEWIGAIYGSGNTYYASWAKGRFTISKTSTTVDLKITSPTTEDTATYFCARDVHSTATDLWGPGTLVTISS
VL: SYELTQLPSVSVSLGQTARITCGGNNIGSKAVNWYQQKPGLAPGLLIYNDDERPSGVPDRFSGSNSGDTATLTISGAQAGDEADYYCQLWDSSAGAYVFGGGTQLTVTG
notes: as for B2
On to B7, for which the binding result in test [1] is given as “no binding”; in test [2], “binds”.
